From patent US20200199241A1 (Chugai, published 2020)

The binders below were run against T1, human FcRn (soluble human FcRn complexed with β2-microglobulin) (human, UniProt P61769 21-119, limits assumed) (assay: SPR, pH 7.0;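 further: antibodies captured on a Protein L sensor chip with human FcRn injected as analyte, KD calculated from fitted association and dissociation rate constants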).
T1 construct: also called hFcRn

Binder	Kd [nM]
IgG1-F84 (antibody, EU numbering; copies: 2 + 2) heavy: QVQLQESGPGLVKPSETLSLTCAVSGHSISHDHAWSWVRQPPGEGLEWIGFISYSGITNYNPSLQGRVTISRDNSKNTLYLQMNSLRAEDTAVYYCARSLARTTAMDYWGEGTLVTVSSASTKGPSVFPLAPSSKSTSGGTAALGCLVKDYFPEPVTVSWNSGALTSGVHTFPAVLQSSGLYSLSSVVTVPSSSLGTQTYICNVNHKPSNTKVDKKVEPKSCDKTHTCPPCPAPELLGGPSVFLFPPKPKDTLWISRQPEVTCVVVDVSHEDPEVKFNWYVDGVEVHNAKTKPREEQYNSTYRVVSVLTVLHQDWLNGKEYKCKVSNKALPAPIEKTISKAKGQPREPQVYTLPPSRDELTKNQVSLTCLVKGFYPSDIAVEWESNGQPENNYKTTPPVLDSDGSFFLYSKLTVDKSRWQQGNVFSCSVMHEALHWHYTQKSLSLSP light: not shown	280
IgG1-F99 (antibody, EU numbering; copies: 2 + 2) heavy: QVQLQESGPGLVKPSETLSLTCAVSGHSISHDHAWSWVRQPPGEGLEWIGFISYSGITNYNPSLQGRVTISRDNSKNTLYLQMNSLRAEDTAVYYCARSLARTTAMDYWGEGTLVTVSSASTKGPSVFPLAPSSKSTSGGTAALGCLVKDYFPEPVTVSWNSGALTSGVHTFPAVLQSSGLYSLSSVVTVPSSSLGTQTYICNVNHKPSNTKVDKKVEPKSCDKTHTCPPCPAPELLGGPSVFLFPPKPKDTLYISREPEVTCVVVDVSHEDPEVKFNWYVDGVEVHNAKTKPREEQYNSTYRVVSVLTVLHQDWLNGKEYKCKVSNKALPAPIEKTISKAKGQPREPQVYTLPPSRDELTKNQVSLTCLVKGFYPSDIAVEWESNGQPENNYKTTPPVLDSDGSFFLYSKLTVDKSRWQQGNVFSCSVMHEALHHHYTQKSLSLSP light: not shown	620
IgG1-F95 (antibody, EU numbering; copies: 2 + 2) heavy: QVQLQESGPGLVKPSETLSLTCAVSGHSISHDHAWSWVRQPPGEGLEWIGFISYSGITNYNPSLQGRVTISRDNSKNTLYLQMNSLRAEDTAVYYCARSLARTTAMDYWGEGTLVTVSSASTKGPSVFPLAPSSKSTSGGTAALGCLVKDYFPEPVTVSWNSGALTSGVHTFPAVLQSSGLYSLSSVVTVPSSSLGTQTYICNVNHKPSNTKVDKKVEPKSCDKTHTCPPCPAPELLGGPSVFLFPPKPKDTLYITREPEVTCVVVDVSHEDPEVKFNWYVDGVEVHNAKTKPREEQYNSTYRVVSVLTVLHQDWLNGKEYKCKVSNKALPAPIEKTISKAKGQPREPQVYTLPPSRDELTKNQVSLTCLVKGFYPSDIAVEWESNGQPENNYKTTPPVLDSDGSFFLYSKLTVDKSRWQQGNVFSCSVLHEALHFHYTQKSLSLSP light: not shown	260
IgG1-F92 (antibody, EU numbering; copies: 2 + 2) heavy: QVQLQESGPGLVKPSETLSLTCAVSGHSISHDHAWSWVRQPPGEGLEWIGFISYSGITNYNPSLQGRVTISRDNSKNTLYLQMNSLRAEDTAVYYCARSLARTTAMDYWGEGTLVTVSSASTKGPSVFPLAPSSKSTSGGTAALGCLVKDYFPEPVTVSWNSGALTSGVHTFPAVLQSSGLYSLSSVVTVPSSSLGTQTYICNVNHKPSNTKVDKKVEPKSCDKTHTCPPCPAPELLGGPSVFLFPPKPKDTLYITREPEVTCVVVDVSHEDPEVKFNWYVDGVEVHNAKTKPREEQYNSTYRVVSVLTPLHQDWLNGKEYKCKVSNKALPAPIEKTISKAKGQPREPQVYTLPPSRDELTKNQVSLTCLVKGFYPSDIAVEWESNGQPENNYKTTPPVLDSDGSFFLYSKLTVDKSRWQQGNVFSCSVLHEALHWHYTQKSLSLSP light: not shown	11
IgG1-F88 (antibody, EU numbering; copies: 2 + 2) heavy: QVQLQESGPGLVKPSETLSLTCAVSGHSISHDHAWSWVRQPPGEGLEWIGFISYSGITNYNPSLQGRVTISRDNSKNTLYLQMNSLRAEDTAVYYCARSLARTTAMDYWGEGTLVTVSSASTKGPSVFPLAPSSKSTSGGTAALGCLVKDYFPEPVTVSWNSGALTSGVHTFPAVLQSSGLYSLSSVVTVPSSSLGTQTYICNVNHKPSNTKVDKKVEPKSCDKTHTCPPCPAPELLGGPSVFLFPPKPKDTLYITRQPEVTCVVVDVSHEDPEVKFNWYVDGVEVHNAKTKPREEQYNSTYRVVSVLTVLHQDWLNGKEYKCKVSNKALPAPIEKTISKAKGQPREPQVYTLPPSRDELTKNQVSLTCLVKGFYPSDIAVEWESNGQPENNYKTTPPVLDSDGSFFLYSKLTVDKSRWQQGNVFSCSVMHEALHWHYTQKSLSLSP light: not shown	190
IgG1-F90 (antibody, EU numbering; copies: 2 + 2) heavy: QVQLQESGPGLVKPSETLSLTCAVSGHSISHDHAWSWVRQPPGEGLEWIGFISYSGITNYNPSLQGRVTISRDNSKNTLYLQMNSLRAEDTAVYYCARSLARTTAMDYWGEGTLVTVSSASTKGPSVFPLAPSSKSTSGGTAALGCLVKDYFPEPVTVSWNSGALTSGVHTFPAVLQSSGLYSLSSVVTVPSSSLGTQTYICNVNHKPSNTKVDKKVEPKSCDKTHTCPPCPAPELLGGPSVFLFPPKPKDTLYISREPEVTCVVVDVSHEDPEVKFNWYVDGVEVHNAKTKPREEQYNSTYRVVSVLTPLHQDWLNGKEYKCKVSNKALPAPIEKTISKAKGQPREPQVYTLPPSRDELTKNQVSLTCLVKGFYPSDIAVEWESNGQPENNYKTTPPVLDSDGSFFLYSKLTVDKSRWQQGNVFSCSVMHEALHWHYTQKSLSLSP light: not shown	19
IgG1-F86 (antibody, EU numbering; copies: 2 + 2) heavy: QVQLQESGPGLVKPSETLSLTCAVSGHSISHDHAWSWVRQPPGEGLEWIGFISYSGITNYNPSLQGRVTISRDNSKNTLYLQMNSLRAEDTAVYYCARSLARTTAMDYWGEGTLVTVSSASTKGPSVFPLAPSSKSTSGGTAALGCLVKDYFPEPVTVSWNSGALTSGVHTFPAVLQSSGLYSLSSVVTVPSSSLGTQTYICNVNHKPSNTKVDKKVEPKSCDKTHTCPPCPAPELLGGPSVFLFPPKPKDTLMITRQPEVTCVVVDVSHEDPEVKFNWYVDGVEVHNAKTKPREEQYNSTYRVVSVLTVLHQDWLNGKEYKCKVSNKALPAPIEKTISKAKGQPREPQVYTLPPSRDELTKNQVSLTCLVKGFYPSDIAVEWESNGQPENNYKTTPPVLDSDGSFFLYSKLTVDKSRWQQGNVFSCSVMHEALHWHYTQKSLSLSP light: not shown	1500

Now from value to binder:

Kd [nM]	Binder
740	IgG1-F93 (antibody, copies: 2 + 2) heavy: QVQLQESGPGLVKPSETLSLTCAVSGHSISHDHAWSWVRQPPGEGLEWIGFISYSGITNYNPSLQGRVTISRDNSKNTLYLQMNSLRAEDTAVYYCARSLARTTAMDYWGEGTLVTVSSASTKGPSVFPLAPSSKSTSGGTAALGCLVKDYFPEPVTVSWNSGALTSGVHTFPAVLQSSGLYSLSSVVTVPSSSLGTQTYICNVNHKPSNTKVDKKVEPKSCDKTHTCPPCPAPELLGGPSVFLFPPKPKDTLWISRTPEVTCVVVDVSHEDPEVKFNWYVDGVEVHNAKTKPREEQYNSTYRVVSVLTVLHQDWLNGKEYKCKVSNKALPAPIEKTISKAKGQPREPQVYTLPPSRDELTKNQVSLTCLVKGFYPSDIAVEWESNGQPENNYKTTPPVLDSDGSFFLYSKLTVDKSRWQQGNVFSCSVLHEALHWHYTQKSLSLSP light: not shown
4300	IgG1-F87 (antibody, EU numbering; copies: 2 + 2) heavy: QVQLQESGPGLVKPSETLSLTCAVSGHSISHDHAWSWVRQPPGEGLEWIGFISYSGITNYNPSLQGRVTISRDNSKNTLYLQMNSLRAEDTAVYYCARSLARTTAMDYWGEGTLVTVSSASTKGPSVFPLAPSSKSTSGGTAALGCLVKDYFPEPVTVSWNSGALTSGVHTFPAVLQSSGLYSLSSVVTVPSSSLGTQTYICNVNHKPSNTKVDKKVEPKSCDKTHTCPPCPAPELLGGPSVFLFPPKPKDTLMITRQPEVTCVVVDVSHEDPEVKFNWYVDGVEVHNAKTKPREEQYNSTYRVVSVLTVLHQDWLNGKEYKCKVSNKALPAPIEKTISKAKGQPREPQVYTLPPSRDELTKNQVSLTCLVKGFYPSDIAVEWESNGQPENNYKTTPPVLDSDGSFFLYSKLTVDKSRWQQGNVFSCSVMHEALHYHYTQKSLSLSP light: not shown
360	IgG1-F89 (antibody, EU numbering; copies: 2 + 2) heavy: QVQLQESGPGLVKPSETLSLTCAVSGHSISHDHAWSWVRQPPGEGLEWIGFISYSGITNYNPSLQGRVTISRDNSKNTLYLQMNSLRAEDTAVYYCARSLARTTAMDYWGEGTLVTVSSASTKGPSVFPLAPSSKSTSGGTAALGCLVKDYFPEPVTVSWNSGALTSGVHTFPAVLQSSGLYSLSSVVTVPSSSLGTQTYICNVNHKPSNTKVDKKVEPKSCDKTHTCPPCPAPELLGGPSVFLFPPKPKDTLYITRQPEVTCVVVDVSHEDPEVKFNWYVDGVEVHNAKTKPREEQYNSTYRVVSVLTVLHQDWLNGKEYKCKVSNKALPAPIEKTISKAKGQPREPQVYTLPPSRDELTKNQVSLTCLVKGFYPSDIAVEWESNGQPENNYKTTPPVLDSDGSFFLYSKLTVDKSRWQQGNVFSCSVMHEALHYHYTQKSLSLSP light: not shown
370	IgG1-F94 (antibody, copies: 2 + 2) heavy: QVQLQESGPGLVKPSETLSLTCAVSGHSISHDHAWSWVRQPPGEGLEWIGFISYSGITNYNPSLQGRVTISRDNSKNTLYLQMNSLRAEDTAVYYCARSLARTTAMDYWGEGTLVTVSSASTKGPSVFPLAPSSKSTSGGTAALGCLVKDYFPEPVTVSWNSGALTSGVHTFPAVLQSSGLYSLSSVVTVPSSSLGTQTYICNVNHKPSNTKVDKKVEPKSCDKTHTCPPCPAPELLGGPSVFLFPPKPKDTLMISRTLEVTCVVVDVSHEDPEVKFNWYVDGVEVHNAKTKPREEQYNSTYRVVSVLTVLHQDWLNGKEYKCKVSNKALPAPIEKTISKAKGQPREPQVYTLPPSRDELTKNQVSLTCLVKGFYPSDIAVEWESNGQPENNYKTTPPVLDSDGSFFLYSKLTVDKSRWQQGNVFSCSVLHEALHYHYTQKSLSLSP light: not shown
550	IgG1-F85 (antibody, EU numbering; copies: 2 + 2) heavy: QVQLQESGPGLVKPSETLSLTCAVSGHSISHDHAWSWVRQPPGEGLEWIGFISYSGITNYNPSLQGRVTISRDNSKNTLYLQMNSLRAEDTAVYYCARSLARTTAMDYWGEGTLVTVSSASTKGPSVFPLAPSSKSTSGGTAALGCLVKDYFPEPVTVSWNSGALTSGVHTFPAVLQSSGLYSLSSVVTVPSSSLGTQTYICNVNHKPSNTKVDKKVEPKSCDKTHTCPPCPAPELLGGPSVFLFPPKPKDTLWISRQPEVTCVVVDVSHEDPEVKFNWYVDGVEVHNAKTKPREEQYNSTYRVVSVLTVLHQDWLNGKEYKCKVSNKALPAPIEKTISKAKGQPREPQVYTLPPSRDELTKNQVSLTCLVKGFYPSDIAVEWESNGQPENNYKTTPPVLDSDGSFFLYSKLTVDKSRWQQGNVFSCSVMHEALHYHYTQKSLSLSP light: not shown
48	IgG1-F91 (antibody, EU numbering; copies: 2 + 2) heavy: QVQLQESGPGLVKPSETLSLTCAVSGHSISHDHAWSWVRQPPGEGLEWIGFISYSGITNYNPSLQGRVTISRDNSKNTLYLQMNSLRAEDTAVYYCARSLARTTAMDYWGEGTLVTVSSASTKGPSVFPLAPSSKSTSGGTAALGCLVKDYFPEPVTVSWNSGALTSGVHTFPAVLQSSGLYSLSSVVTVPSSSLGTQTYICNVNHKPSNTKVDKKVEPKSCDKTHTCPPCPAPELLGGPSVFLFPPKPKDTLYISRTPEVTCVVVDVSHEDPEVKFNWYVDGVEVHNAKTKPREEQYNSTYRVVSVLTPLHQDWLNGKEYKCKVSNKALPAPIEKTISKAKGQPREPQVYTLPPSRDELTKNQVSLTCLVKGFYPSDIAVEWESNGQPENNYKTTPPVLDSDGSFFLYSKLTVDKSRWQQGNVFSCSVLHEALHYHYTQKSLSLSP light: not shown
